Measurements reported in publication PMC7615710, “ASPP2 binds to hepatitis C virus NS5A protein via an SH3 domain/PxxP motif-mediated interaction and potentiates infection” (The Journal of general virology, 2023).

B1: HCV [1b.Con1] NS5A PRR peptide (peptide)
peptide: WLPPAKAPPIPPPRRKRTVVL
notes: source: synthetic peptide, custom made (TUCF)
B2: Fyn SH3 domain (85-142) (domain or fragment)
chain: not shown
B3: LASP1 SH3 domain (205-261) (domain or fragment)
chain: KRYRAVYDYSAADEDEVSFQDGDTIVNVQQIDDGWMYGTVERTGDTGMLPANYVEAI
B4: ASPP2 C-terminal domain (925-1128) (domain or fragment)
chain: NPLALLLDSSLEGEFDLVQRIIYEVDDPSLPNDEGITALHNAVCAGHTEIVKFLVQFGVNVNAADSDGWTPLHCAASCNNVQVCKFLVESGAAVFAMTYSDMQTAADKCEEMEEGYTQCSQFLYGVQEKMGIMNKGVIYALWDYEPQNDDELPMKEGDCMTIIHREDEDEIEWWWARLNDKEGYVPRNLLGLYPRIKPRQRSLA
notes: also called ASPP2 CTD
B5: Lyn SH3 domain (65-122) (domain or fragment)
chain: GDIVVALYPYDGIHPDDLSFKKGEKMKVLEEHGEWWKAKSLLTKKEGFIPSNYVAKLN
B6: HCV [2a.JFH-1] NS5A PRR peptide (peptide)
peptide: WLPPPKKAPTPPPRRRRTVGL
notes: also called NS5A (2a); NS5A PRR peptide (JFH-1); source: synthetic peptide, custom made (TUCF)
B7: HCV [4a.ED43] NS5A PRR peptide (peptide)
peptide: WLPPAKQPPVPSPRRKRTVQL
notes: as for B1
B8: Grb2 SH3 domain (1-58) (domain or fragment)
chain: MEAIAKYDFKATADDELSFKRGDILKVLNEECDQNWYKAELNGKDGFIPKNYIEMKPH
B9: ASPP1 C-terminal domain (887-1090) (domain or fragment)
chain: NPLALLLDASLEGEFDLVQRIIYEVEDPSKPNDEGITPLHNAVCAGHHHIVKFLLDFGVNVNAADSDGWTPLHCAASCNSVHLCKQLVESGAAIFASTISDIETAADKCEEMEEGYIQCSQFLYGVQEKLGVMNKGVAYALWDYEAQNSDELSFHEGDALTILRRKDESETEWWWARLGDREGYVPKNLLGLYPRIKPRQRTLA
notes: also called ASPP1 CTD

Legend:
Assay in all cases: ITC; 450 or 300 uM NS5A PRR peptide (syringe) titrated to 30 uM ASPP CTD or SH3 domain (cell), 12 °C, 25 mM HEPES pH 7.5, 150 mM NaCl, 500 uM TCEP; 25 steps of 10 ul; AB hetero association model (SEDPHAT)
Conditions in all cases: both partners purified
[1] = molecular target: B4
[2] = molecular target: B9
[3] = molecular target: T1, HCV [1a.1] NS5A PRR peptide (Hepatitis C virus genotype 1a (strain 1))
T1 construct: source: synthetic peptide, custom made (TUCF)

| Binder | Kd [1] | Kd [2] | Kd [3] |
| --- | --- | --- | --- |
| B1 | 0.0758 µM | 6.7 µM | – |
| B2 | – | – | 5.89 µM |
| B3 | – | – | 2.3 µM |
| B4 | – | – | 0.234 µM |
| B5 | – | – | 5.1 µM |
| B6 | 0.0424 µM | 3.78 µM | – |
| B7 | 0.741 µM | 42.8 µM | – |
| B8 | – | – | 7.96 µM |
| B9 | – | – | 9.27 µM |
